These results are taken from publication PMC3307134.

In assay [1] the target is recombinant dimeric (β15-66)2 fragment. Put plainly: ELISA.
Assay [2] addresses VE-cad(1-5) fragment (human). Put plainly: SPR.
For assay [3], the target named is VE-cad(3)His fragment (human). Put plainly: SPR.
The target in assay [4] is VE-cad(3)His fragment (human). In words: SPR. The source holds these as a separate data set.
Assay [5] addresses VE-cad(1-5) fragment (human). Put plainly: SPR. The source holds these as a separate data set.
Assay [6] deals with VE-cad(3)His fragment (human). In words: SPR. This is another data set of the same source.
For assay [7], the target named is fibrin (β15-66)2 15-66 (Homo sapiens) (UniProt P02675). Put plainly: SPR. The following applies: cited from earlier work.
Chain of fibrin (β15-66)2 15-66 (Homo sapiens) (P02675 15-66): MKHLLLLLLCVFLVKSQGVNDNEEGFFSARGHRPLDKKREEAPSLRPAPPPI

Read-outs that look alike come from different tables or passages of the source.

Chain of VE-cadherin VE-cad(1-4)His EC1-4 (P33151 48-477): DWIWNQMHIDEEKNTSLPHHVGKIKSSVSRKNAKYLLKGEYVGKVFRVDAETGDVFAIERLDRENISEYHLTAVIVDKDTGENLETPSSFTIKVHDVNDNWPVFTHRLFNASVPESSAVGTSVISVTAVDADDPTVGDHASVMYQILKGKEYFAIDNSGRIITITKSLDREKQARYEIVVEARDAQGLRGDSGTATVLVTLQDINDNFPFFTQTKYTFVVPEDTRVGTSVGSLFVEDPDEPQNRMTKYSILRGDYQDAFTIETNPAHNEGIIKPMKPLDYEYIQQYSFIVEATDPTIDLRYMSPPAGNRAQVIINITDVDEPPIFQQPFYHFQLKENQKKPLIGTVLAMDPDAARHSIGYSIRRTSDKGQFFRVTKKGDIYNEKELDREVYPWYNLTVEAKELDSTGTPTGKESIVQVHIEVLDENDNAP

Take “VE-cad(2-3) fragment (domain or fragment)”: the Kd in assay [1] is 0.027 µM.
Turning to “recombinant dimeric (β15-66)2 fragment (domain or fragment)”, the Kd turned out to be 0.082 µM in assay [2]; 0.09 µM in assay [3]; 0.089 µM in assay [4]; 0.0767 µM in assay [5]; 0.091 µM in assay [6]. The kon in assay [5] amounted to 678000 M⁻¹ s⁻¹; in assay [6], 189000 M⁻¹ s⁻¹. This substance also had a koff in assay [6] of 0.0172 s⁻¹.
On to “VE-cad(2-4) fragment (domain or fragment)”, for which the Kd in assay [1] was determined as 0.032 µM.
Turning to “VE-cadherin VE-cad(1-4)His EC1-4 (from UniProt P33151)”, in assay [7], the dissociation constant Kd is 0.08 µM.
